Target: murine DNGR-1 (CLEC9A) expressed in B3Z NFAT reporter cells with SYK (mouse) (UniProt Q8BRU4)
UniProt Q8BRU4, sequence (Q8BRU4 whole entry): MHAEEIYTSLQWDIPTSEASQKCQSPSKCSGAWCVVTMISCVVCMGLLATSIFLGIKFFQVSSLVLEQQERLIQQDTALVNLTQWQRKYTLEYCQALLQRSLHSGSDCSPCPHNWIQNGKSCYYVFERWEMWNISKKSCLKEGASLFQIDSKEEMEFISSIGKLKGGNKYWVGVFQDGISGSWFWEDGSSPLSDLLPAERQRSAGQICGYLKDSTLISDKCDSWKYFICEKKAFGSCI

- β-galactosidase (NFAT-LacZ) reporter activity of B3Z cells expressing DNGR-1 and SYK, stimulated with DNGR-1L, dose-dependent; EC50: 5 nM
Substance: DNGR-1 ligand (DNGR-1L), F-actin-myosin II complexes (from UniProt P68135 1-377)
